Assay results: patent publication US20170246372A1

Molecular target: ADAMTS-5 (UniProt Q9UNA0)
Assay: cell-based or functional assay

UniProt Q9UNA0, sequence (Q9UNA0 262-622 limits assumed): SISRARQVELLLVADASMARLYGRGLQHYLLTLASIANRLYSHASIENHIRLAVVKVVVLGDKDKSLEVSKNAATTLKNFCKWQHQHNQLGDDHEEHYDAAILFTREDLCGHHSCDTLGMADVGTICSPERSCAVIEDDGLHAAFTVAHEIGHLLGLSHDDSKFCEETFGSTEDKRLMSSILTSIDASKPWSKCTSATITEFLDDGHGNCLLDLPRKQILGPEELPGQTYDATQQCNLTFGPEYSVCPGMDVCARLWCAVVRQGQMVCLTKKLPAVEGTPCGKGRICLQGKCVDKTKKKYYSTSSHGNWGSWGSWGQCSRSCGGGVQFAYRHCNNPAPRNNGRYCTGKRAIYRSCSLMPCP

Substance: purified A2M (alpha-2-macroglobulin) (from UniProt P01023 24-1474)
- IC50 for inhibiting 500 ng/ml of ADAMTS-5 (bovine cartilage explants, 2 days, 3-fold serial dilution of A2M): 7 µg/mL
- Maximum inhibition (bovine cartilage explants treated with protease, 2 days): 90%
